Results as given in patent publication US20160002357A1.
Each block holds one substance with its values, some of them ahead of it.

Key:
huP-cad-ECD (human) = huP-cad-ECD (human) (UniProt P22223); assay: ELISA, recombinant protein
muP-cad-ECD (murine) = muP-cad-ECD (murine) (UniProt P10287); assay: ELISA, recombinant protein
[1] = biological target: huP-cad-ECD biotinylated (human) (UniProt P22223); assay: ELISA, recombinant protein
[2] = biological target: human P-cadherin expressed on the cell surface (human) (UniProt P22223); assay: cell ELISA, CHO-huPcad cells
human P-cadherin expressed on the cell surface (human), sequence (P22223 108-829): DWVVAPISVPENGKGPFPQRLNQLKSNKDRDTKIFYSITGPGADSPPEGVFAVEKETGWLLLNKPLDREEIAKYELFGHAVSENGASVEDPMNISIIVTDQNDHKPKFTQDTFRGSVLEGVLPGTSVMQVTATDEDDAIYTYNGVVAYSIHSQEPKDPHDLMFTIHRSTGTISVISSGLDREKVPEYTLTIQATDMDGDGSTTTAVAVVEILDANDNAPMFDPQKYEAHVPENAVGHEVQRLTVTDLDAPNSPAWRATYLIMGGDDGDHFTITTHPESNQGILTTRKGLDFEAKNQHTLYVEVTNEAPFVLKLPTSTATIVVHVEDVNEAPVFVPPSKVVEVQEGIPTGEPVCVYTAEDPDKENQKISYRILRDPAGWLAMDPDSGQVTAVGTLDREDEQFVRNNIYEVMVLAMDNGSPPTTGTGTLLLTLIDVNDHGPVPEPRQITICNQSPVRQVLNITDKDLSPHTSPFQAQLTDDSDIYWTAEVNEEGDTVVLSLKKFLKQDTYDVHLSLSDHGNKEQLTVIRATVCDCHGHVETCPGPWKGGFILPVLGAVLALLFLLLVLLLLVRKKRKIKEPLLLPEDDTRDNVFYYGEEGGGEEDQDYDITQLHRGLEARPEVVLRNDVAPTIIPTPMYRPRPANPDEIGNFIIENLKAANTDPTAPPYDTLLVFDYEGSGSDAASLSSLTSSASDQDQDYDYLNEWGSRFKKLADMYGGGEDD

[3] = biological target: human P-cadherin expressed on the cell surface (human) (UniProt P22223); assay: cell ELISA, H1650 cells
[4] = biological target: human P-cadherin expressed on the cell surface (human) (UniProt P22223); assay: cell ELISA, SW480-huPcad cells
[5] = biological target: human P-cadherin, cell surface expressed (human) (UniProt P22223); assay: flow cytometry, PE-labeled mAb, H1975_Luc cells
human P-cadherin, cell surface expressed (human), sequence (P22223 108-829): as above

[6] = biological target: human P-cadherin, cell surface expressed (human) (UniProt P22223); assay: quantitative flow cytometry (QuantiBRITE PE), Ls174T_Luc cells
[7] = biological target: human P-cadherin, cell surface expressed (human) (UniProt P22223); assay: flow cytometry, PE-labeled mAb, BT20_Luc cells
[8] = biological target: human P-cadherin, cell surface expressed (human) (UniProt P22223); assay: quantitative flow cytometry (QuantiBRITE PE), LoVo_Luc cells
[9] = biological target: human P-cadherin, cell surface expressed (human) (UniProt P22223); assay: flow cytometry, PE-labeled mAb, SUM149 cells
[10] = biological target: human P-cadherin, cell surface expressed (human) (UniProt P22223); assay: flow cytometry, PE-labeled mAb, H1650_Luc cells
[11] = biological target: human P-cadherin, cell surface expressed (human) (UniProt P22223); assay: quantitative flow cytometry (QuantiBRITE PE), HT29_Luc cells
[12] = biological target: human P-cadherin, cell surface expressed (human) (UniProt P22223); assay: flow cytometry, PE-labeled mAb, SW620 cells
[13] = biological target: human P-cadherin, cell surface expressed (human) (UniProt P22223); assay: flow cytometry, PE-labeled mAb, Ls174T cells
[14] = biological target: human P-cadherin, cell surface expressed (human) (UniProt P22223); assay: quantitative flow cytometry (QuantiBRITE PE), SUM149 cells
[15] = biological target: human P-cadherin, cell surface expressed (human) (UniProt P22223); assay: quantitative flow cytometry (QuantiBRITE PE), SW480_Luc cells
[16] = biological target: human P-cadherin, cell surface expressed (human) (UniProt P22223); assay: quantitative flow cytometry (QuantiBRITE PE), HCT116 cells
[17] = biological target: human P-cadherin, cell surface expressed (human) (UniProt P22223); assay: quantitative flow cytometry (QuantiBRITE PE), SW620_Luc cells
[18] = biological target: human P-cadherin, cell surface expressed (human) (UniProt P22223); assay: quantitative flow cytometry (QuantiBRITE PE), Colo205_Luc cells
[19] = biological target: human P-cadherin, cell surface expressed (human) (UniProt P22223); assay: quantitative flow cytometry (QuantiBRITE PE), HCT116_Luc cells
[20] = biological target: human P-cadherin, cell surface expressed (human) (UniProt P22223); assay: flow cytometry, PE-labeled mAb, SUM149_Luc cells
[21] = biological target: human P-cadherin, cell surface expressed (human) (UniProt P22223); assay: flow cytometry, PE-labeled mAb, Ls174T_Luc cells
[22] = biological target: human P-cadherin, cell surface expressed (human) (UniProt P22223); assay: flow cytometry, PE-labeled mAb, Colo205_Luc cells
[23] = biological target: human P-cadherin, cell surface expressed (human) (UniProt P22223); assay: flow cytometry, PE-labeled mAb, LoVo_Luc cells
[24] = biological target: human P-cadherin, cell surface expressed (human) (UniProt P22223); assay: flow cytometry, PE-labeled mAb, HCT116_Luc cells
[25] = biological target: human P-cadherin, cell surface expressed (human) (UniProt P22223); assay: quantitative flow cytometry (QuantiBRITE PE), SW620 cells
[26] = biological target: human P-cadherin, cell surface expressed (human) (UniProt P22223); assay: flow cytometry, PE-labeled mAb, SW620_Luc cells
[27] = biological target: human P-cadherin, cell surface expressed (human) (UniProt P22223); assay: quantitative flow cytometry (QuantiBRITE PE), Ls174T cells
[28] = biological target: human P-cadherin, cell surface expressed (human) (UniProt P22223); assay: flow cytometry, PE-labeled mAb, H322_Luc cells
[29] = biological target: human P-cadherin, cell surface expressed (human) (UniProt P22223); assay: quantitative flow cytometry (QuantiBRITE PE), H322_Luc cells
[30] = biological target: human P-cadherin, cell surface expressed (human) (UniProt P22223); assay: flow cytometry, PE-labeled mAb, HCT116 cells
[31] = biological target: human P-cadherin, cell surface expressed (human) (UniProt P22223); assay: quantitative flow cytometry (QuantiBRITE PE), H1650_Luc cells
[32] = biological target: human P-cadherin, cell surface expressed (human) (UniProt P22223); assay: quantitative flow cytometry (QuantiBRITE PE), H1975_Luc cells
[33] = biological target: human P-cadherin, cell surface expressed (human) (UniProt P22223); assay: flow cytometry, PE-labeled mAb, HT29_Luc cells
[34] = biological target: human P-cadherin, cell surface expressed (human) (UniProt P22223); assay: quantitative flow cytometry (QuantiBRITE PE), SW480 cells
[35] = biological target: human P-cadherin, cell surface expressed (human) (UniProt P22223); assay: quantitative flow cytometry (QuantiBRITE PE), SUM149_Luc cells
[36] = biological target: human P-cadherin, cell surface expressed (human) (UniProt P22223); assay: flow cytometry, PE-labeled mAb, SW480 cells
[37] = biological target: human P-cadherin, cell surface expressed (human) (UniProt P22223); assay: quantitative flow cytometry (QuantiBRITE PE), BT20_Luc cells
[38] = biological target: human P-cadherin, cell surface expressed (human) (UniProt P22223); assay: flow cytometry, PE-labeled mAb, SW480_Luc cells
[39] = biological target: human P-cadherin, cell surface expressed (human) (UniProt P22223); assay: flow cytometry, PE-conjugated mAb, SUM149_Luc cells
[40] = biological target: human P-cadherin, cell surface expressed (human) (UniProt P22223); assay: flow cytometry, PE-conjugated mAb, HCT116 cells
[41] = biological target: human P-cadherin, cell surface expressed (human) (UniProt P22223); assay: flow cytometry, PE-conjugated mAb, LoVo_Luc cells
[42] = biological target: human P-cadherin, cell surface expressed (human) (UniProt P22223); assay: flow cytometry, PE-conjugated mAb, SW480 cells
[43] = biological target: human P-cadherin, cell surface expressed (human) (UniProt P22223); assay: flow cytometry, PE-conjugated mAb, SW620_Luc cells
[44] = biological target: human P-cadherin, cell surface expressed (human) (UniProt P22223); assay: flow cytometry, PE-conjugated mAb, SUM149 cells
[45] = biological target: human P-cadherin, cell surface expressed (human) (UniProt P22223); assay: flow cytometry, PE-conjugated mAb, HT29_Luc cells
[46] = biological target: human P-cadherin, cell surface expressed (human) (UniProt P22223); assay: flow cytometry, PE-conjugated mAb, HCT116_Luc cells
[47] = biological target: human P-cadherin, cell surface expressed (human) (UniProt P22223); assay: flow cytometry, PE-conjugated mAb, Ls174T_Luc cells
[48] = biological target: human P-cadherin, cell surface expressed (human) (UniProt P22223); assay: flow cytometry, PE-conjugated mAb, Ls174T cells
[49] = biological target: human P-cadherin, cell surface expressed (human) (UniProt P22223); assay: flow cytometry, PE-conjugated mAb, BT20_Luc cells
[50] = biological target: human P-cadherin, cell surface expressed (human) (UniProt P22223); assay: flow cytometry, PE-conjugated mAb, H322_Luc cells
[51] = biological target: human P-cadherin, cell surface expressed (human) (UniProt P22223); assay: flow cytometry, PE-conjugated mAb, SW480_Luc cells
[52] = biological target: human P-cadherin, cell surface expressed (human) (UniProt P22223); assay: flow cytometry, PE-conjugated mAb, Colo205_Luc cells
[53] = biological target: human P-cadherin, cell surface expressed (human) (UniProt P22223); assay: flow cytometry, PE-conjugated mAb, H1650_Luc cells
[54] = biological target: human P-cadherin, cell surface expressed (human) (UniProt P22223); assay: flow cytometry, PE-conjugated mAb, H1975_Luc cells
[55] = biological target: human P-cadherin, cell surface expressed (human) (UniProt P22223); assay: flow cytometry, PE-conjugated mAb, SW620 cells

huP-cad-ECD biotinylated (human), sequence (P22223 108-654): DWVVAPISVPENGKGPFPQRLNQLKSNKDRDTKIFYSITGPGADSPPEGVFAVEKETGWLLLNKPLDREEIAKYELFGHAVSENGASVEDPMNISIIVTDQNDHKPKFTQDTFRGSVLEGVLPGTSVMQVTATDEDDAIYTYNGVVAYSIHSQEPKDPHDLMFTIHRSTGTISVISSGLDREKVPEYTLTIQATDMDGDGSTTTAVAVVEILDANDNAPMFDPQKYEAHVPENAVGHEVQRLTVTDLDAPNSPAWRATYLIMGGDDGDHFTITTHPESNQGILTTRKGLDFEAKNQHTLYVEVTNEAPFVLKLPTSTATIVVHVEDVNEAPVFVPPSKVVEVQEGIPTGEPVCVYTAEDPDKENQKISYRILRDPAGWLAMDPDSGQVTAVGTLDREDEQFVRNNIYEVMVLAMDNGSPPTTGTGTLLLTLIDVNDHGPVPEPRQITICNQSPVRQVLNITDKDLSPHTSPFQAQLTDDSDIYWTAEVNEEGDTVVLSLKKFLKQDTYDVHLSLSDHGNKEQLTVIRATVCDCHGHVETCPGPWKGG
huP-cad-ECD (human), sequence (P22223 108-654): as above
muP-cad-ECD (murine), sequence (P10287 100-647): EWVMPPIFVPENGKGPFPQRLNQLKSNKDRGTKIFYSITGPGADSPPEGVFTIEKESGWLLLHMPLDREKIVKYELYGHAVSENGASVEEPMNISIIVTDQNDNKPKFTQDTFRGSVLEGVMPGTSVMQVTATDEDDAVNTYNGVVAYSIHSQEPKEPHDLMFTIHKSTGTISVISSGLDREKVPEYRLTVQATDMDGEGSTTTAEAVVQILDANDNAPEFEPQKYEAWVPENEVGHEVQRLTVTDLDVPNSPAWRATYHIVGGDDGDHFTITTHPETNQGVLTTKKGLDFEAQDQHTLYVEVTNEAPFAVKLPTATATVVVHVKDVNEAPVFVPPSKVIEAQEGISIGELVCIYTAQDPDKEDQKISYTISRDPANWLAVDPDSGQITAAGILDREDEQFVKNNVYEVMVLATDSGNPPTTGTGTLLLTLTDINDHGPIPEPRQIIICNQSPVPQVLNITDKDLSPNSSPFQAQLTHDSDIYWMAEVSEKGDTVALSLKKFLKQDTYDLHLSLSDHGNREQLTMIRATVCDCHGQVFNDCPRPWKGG

EC50 (huP-cad-ECD (human)): 1.94 nM | EC50 (muP-cad-ECD (murine)): 2.33 nM | EC50 [1]: 0.0188 nM | EC50 [2]: 0.329 nM | EC50 [3]: 0.209 nM | EC50 [4]: 0.167 nM
Substance: anti-P-cadherin clinical mAb PF-03732010 (antibody)

MFI [5]: 3160 | ABC (antibodies bound per cell) (antibodies bound per cell) [6]: 929 | MFI [7]: 5240 | ABC (antibodies bound per cell) (antibodies bound per cell) [8]: 5800 | MFI [9]: 2870 | MFI [10]: 7960 | ABC (antibodies bound per cell) (antibodies bound per cell) [11]: 2420 | MFI [12]: 297 | MFI [13]: 986 | ABC (antibodies bound per cell) (antibodies bound per cell) [14]: 15400 | ABC (antibodies bound per cell) (antibodies bound per cell) [15]: 5300 | ABC (antibodies bound per cell) (antibodies bound per cell) [16]: 43800 | ABC (antibodies bound per cell) (antibodies bound per cell) [17]: 715 | ABC (antibodies bound per cell) (antibodies bound per cell) [18]: 874 | ABC (antibodies bound per cell) (antibodies bound per cell) [19]: 26400 | MFI [20]: 3720 | MFI [21]: 290 | MFI [22]: 357 | MFI [23]: 1390 | MFI [24]: 5660 | ABC (antibodies bound per cell) (antibodies bound per cell) [25]: 1120 | MFI [26]: 276 | ABC (antibodies bound per cell) (antibodies bound per cell) [27]: 4160 | MFI [28]: 3230 | ABC (antibodies bound per cell) (antibodies bound per cell) [29]: 16600 | MFI [30]: 8030 | ABC (antibodies bound per cell) (antibodies bound per cell) [31]: 37600 | ABC (antibodies bound per cell) (antibodies bound per cell) [32]: 15400 | MFI [33]: 787 | ABC (antibodies bound per cell) (antibodies bound per cell) [34]: 12700 | ABC (antibodies bound per cell) (antibodies bound per cell) [35]: 17000 | MFI [36]: 2470 | ABC (antibodies bound per cell) (antibodies bound per cell) [37]: 24300 | MFI [38]: 1260
Substance: anti-human P-cadherin mAb PF-03732010, phycoerythrin (PE) labeled (antibody)

MFI [39]: 213 | MFI [40]: 239 | MFI [41]: 175 | MFI [42]: 171 | MFI [43]: 125 | MFI [44]: 68 | MFI [45]: 282 | MFI [46]: 229 | MFI [47]: 94 | MFI [48]: 222 | MFI [49]: 225 | MFI [50]: 242 | MFI [51]: 151 | MFI [52]: 173 | MFI [53]: 254 | MFI [54]: 373 | MFI [55]: 88
Substance: control mouse IgG1 mAb (Biolegend), PE conjugated (antibody)
